The source of these data is patent publication US20090081183A1, “HIV Transcription Repressor Complex and Compositions and Methods Based Thereon” (priority 1997, published 2009).

Experiment [1] has as its system RCS oligonucleotide (−10 to +27 of HIV-1 LTR). In kind it is binding.
For the next experiment, the system named is HIV-1 LTR. Nature of the experiment: Tat-activated integrated LTR-CAT reporter assay in HeLa-CD4-LTR cells. In kind it is cell-based. On the procedure:
Cell lines transfections and assays. Transfections of HeLa cells were performed as previously described (49). HeLa-CD4-LTR (9) cells were grown in DMEM supplemented with 10% FCS and transfected with 20 μg plasmid DNA (prepared using EndoFree plasmid kit, Qiagen, Valencia, Calif.) by calcium phosphate coprecipitation as per manufacturer's instructions (ProFection system, Promega, Madison, Wis.). After 30 minutes at room temperature, the solution was added to the cells (2.5-4×10^5 cells/plate). Twelve hours after transfection, the cells were washed with PBS and fed fresh medium. Forty-eight hours later the cells were harvested, cellular extracts prepared, and CAT assays performed as previously described (49). To control for the effect of transcription factor overexpression on general cellular promoters a reporter construct driven by the beta-actin promoter, pH[…]-actin-luciferase (66), was used in cotransfection and CAT expression normalized for luciferase activity. Other plasmids used have been previously described (2, 49). […] Up to 30 μl of cellular extract (normalized for protein concentration) in a final volume of 130 μl was used for luciferase reactions.
The LTR reporter carried by HeLa-CD4-LTR cell line exists within the native chromatin structure of the genome. […]
(A reporter such as luciferase makes a cellular process visible.)

A further experiment has as its target T1, LSF (Homo sapiens, UniProt Q12800, A491Q).
T1 construct: host or cells: in vitro transcription/translation in rabbit reticulocyte lysate (T7 RNA polymerase)
T1 sequence (Q12800 1-502 A491Q): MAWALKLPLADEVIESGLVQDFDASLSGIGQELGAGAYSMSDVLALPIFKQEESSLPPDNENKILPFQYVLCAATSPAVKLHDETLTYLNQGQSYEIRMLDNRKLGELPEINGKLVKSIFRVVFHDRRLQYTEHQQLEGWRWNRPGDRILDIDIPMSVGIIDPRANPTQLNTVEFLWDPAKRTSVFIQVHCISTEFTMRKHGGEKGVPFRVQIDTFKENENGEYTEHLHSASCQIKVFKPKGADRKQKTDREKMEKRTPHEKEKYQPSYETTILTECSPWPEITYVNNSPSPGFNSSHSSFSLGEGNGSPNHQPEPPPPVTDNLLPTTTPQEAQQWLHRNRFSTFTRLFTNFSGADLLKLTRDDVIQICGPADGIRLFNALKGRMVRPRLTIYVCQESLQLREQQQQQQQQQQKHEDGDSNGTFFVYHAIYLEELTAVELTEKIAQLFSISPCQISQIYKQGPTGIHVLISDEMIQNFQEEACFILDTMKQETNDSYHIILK
Nature of the experiment: In vitro protein interaction mapping: GST-YY1/GFI-1 chimeras retaining 35S-labeled LSF. In kind it is binding. As to conditions: glutathione-agarose capture, 35S-methionine labeled LSF. The source says:
In vitro protein interaction mapping: Glutathione-S-transferase (GST)-YY1/GFI-1 chimeras (17) and G3ST-LSF deletion (54, 55) constructs were expressed and harvested in E. coli as previously described. Proteins were visualized by Coomassie brilliant blue staining and protein content was normalized by densitometric analysis. LSF was transcribed and translated in vitro by T7 RNA polymerase in rabbit reticulocyte (Promega, Madison, Wis.) in the presence of ^35S-methionine as per manufacturer's instruction (54). Following capture of GST-YY1/GFI-1 chimera proteins on glutathione-agarose beads, equal volumes of beads were incubated with ^35S-methionine labeled LSF in incubation buffer (17) for 1 hour at 4° C. The beads were washed in incubation buffer/100 mM KCl and resuspended in 20 μl 2×SDS loading buffer. Retained LSF was separated in a 10% SDS gel, dried, and visualized by autoradiography. Similarly, YY1 was transcribed and translated in vitro, incubated with captured GST-LSF constructs, and retained YY1 was by autoradiography following electrophoresis.
YY1 DNA-binding activity and many YY1-protein interactions map to the carboxyl-terminal zinc fingers of the molecule. Therefore, YY1 interaction domains were mapped using chimeric YY1 recombinants (FIG. 2c). […]

Read-outs that look alike come from different tables or passages of the source.

B1: LSF: lymphoid transcription factor (LBF-1, CP-2) that represses LTR-driven transcription (SEQ ID NO: 5) (protein, listed as Homo sapiens)
chain: MAWALKLPLADEVIESGLVQDFDASLSGIGQELGAGAYSMSDVLALPIFKQEESSLPPDNENKILPFQYVLCAATSPAVKLHDETLTYLNQGQSYEIRMLDNRKLGELPEINGKLVKSIFRVVFHDRRLQYTEHQQLEGWRWNRPGDRILDIDIPMSVGIIDPRANPTQLNTVEFLWDPAKRTSVFIQVHCISTEFTMRKHGGEKGVPFRVQIDTFKENENGEYTEHLHSASCQIKVFKPKGADRKQKTDREKMEKRTPHEKEKYQPSYETTILTECSPWPEITYVNNSPSPGFNSSHSSFSLGEGNGSPNHQPEPPPPVTDNLLPTTTPQEAQQWLHRNRFSTFTRLFTNFSGADLLKLTRDDVIQICGPADGIRLFNALKGRMVRPRLTIYVCQESLQLREQQQQQQQQQQKHEDGDSNGTFFVYHAIYLEELTAVELTEKIAQLFSISPCQISQIYKQGPTGIHVLISDEMIQNFQEEACFILDTMKQETNDSYHIILK
As to B1, the “Complex formation with the RCS in EMSA” value in experiment [1] (10 ng protein alone) is reported as “formed a diffuse faintly visible EMSA band”; in experiment [1] (20 ng protein alone), “induced a very prominent protein-DNA complex”. Also, the “Tat-activated CAT expression from integrated LTR reporter” value in the experiment with HIV-1 LTR (200 ng pAR-Tat, 2.5 μg CMV expression plasmid, normalized to β-actin-luciferase) is “had no effect on expression of CAT”. Further, the “Effect on YY1-mediated repression of integrated LTR-CAT expression” value in the experiment with HIV-1 LTR (with YY1 transfection, trichostatin-A added to culture medium (data not shown)) is given as “augmented repression mediated by YY1”.

B2: YZnFs: GST fused to all four YY1 zinc fingers without the YY1 amino-terminal region (protein)
chain: TIACPHKGCTKMFRDNSAMRKHLHTHGPRVHVCAECGKAFVESSKLKRHQLVHTGEKPFQCTFEGCGKRFSLDFNLRTHVRIHTGDRPYVCPFDGCNKKFAQSTNLKSHILTHAKAKNNQ
modifications: left off: a dimerising Fc or GST
notes: GST fused to all four YY1 zinc fingers without the YY1 amino-terminal region
Take B2: the “Binding of LSF in vitro by GST-fused construct” value with LSF is “binds LSF with equal avidity to intact GST-YY1”.
